This is an account of results in patent US20140193357A1.

“And” between values parts separate entries of the source, which are not always exact repeats. Identical values can stand only once.

The target of this experiment is T1, G-CSF receptor on the surface of murine myeloid leukemia cell line G-NFS-60 (murine (cell line G-NFS-60)) (UniProt P40223).
T1 sequence (looked up): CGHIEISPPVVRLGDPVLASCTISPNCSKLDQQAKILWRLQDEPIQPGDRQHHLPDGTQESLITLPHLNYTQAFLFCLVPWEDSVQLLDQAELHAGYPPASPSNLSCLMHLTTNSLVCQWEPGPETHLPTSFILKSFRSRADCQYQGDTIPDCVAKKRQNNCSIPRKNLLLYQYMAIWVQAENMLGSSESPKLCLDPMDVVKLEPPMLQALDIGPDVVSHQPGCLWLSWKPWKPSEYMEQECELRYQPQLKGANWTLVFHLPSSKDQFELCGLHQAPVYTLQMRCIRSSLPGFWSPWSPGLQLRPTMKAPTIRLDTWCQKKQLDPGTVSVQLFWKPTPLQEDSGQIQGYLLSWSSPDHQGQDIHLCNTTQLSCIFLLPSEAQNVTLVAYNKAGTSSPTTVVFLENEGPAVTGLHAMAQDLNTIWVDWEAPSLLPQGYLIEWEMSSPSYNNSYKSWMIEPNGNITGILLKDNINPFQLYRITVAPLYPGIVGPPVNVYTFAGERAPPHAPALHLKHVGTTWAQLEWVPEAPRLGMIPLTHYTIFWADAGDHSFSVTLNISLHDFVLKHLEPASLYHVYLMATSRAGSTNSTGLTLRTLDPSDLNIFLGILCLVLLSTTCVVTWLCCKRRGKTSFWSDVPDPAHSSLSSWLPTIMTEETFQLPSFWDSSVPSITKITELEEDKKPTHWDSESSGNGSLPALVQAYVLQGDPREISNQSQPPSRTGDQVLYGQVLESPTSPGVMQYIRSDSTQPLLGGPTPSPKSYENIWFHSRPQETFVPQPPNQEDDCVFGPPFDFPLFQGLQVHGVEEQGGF
The experiment is described as follows: cell-based or functional assay.

Turning to “Monomer G-CSF (from UniProt P09919 31-204) (ligand)”, the Biologic activity (proliferation of G-NFS-60 cells, MTS dye) was 1e+08 IU/mg and 6e+07 IU/ml.
